Measured values as given in article PMC6156364, “Bioinformatic and in vitro Analyses of Arabidopsis Starch Synthase 2 Reveal Post-translational Regulatory Mechanisms” (Frontiers in Plant Science, 2018).
Each block holds one molecule with its values, some of them ahead of it.

Columns and labels:
Experiment in all cases: SEC; gel permeation chromatography of ArcticExpress bacterial lysates on Superdex 20/300 GL in rupturing buffer (20 mM Tricine pH 7.5, 7.5 mM MgCl2, 1 mM DTT), 0.25 ml/min; fractions immunoblotted with anti-S-tag; wild type also pretreated with CKII + 1 mM ATP or with CIP
[1] = target: recombinant S-tagged Arabidopsis SS2 N-terminal region polypeptide (NT) (Arabidopsis thaliana) (UniProt Q9MAC8)
[2] = target: recombinant S-tagged Arabidopsis SS2 N-terminal truncation TRU1 (Arabidopsis thaliana) (UniProt Q9MAC8)
[3] = target: the molecule itself

stoichiometry N [1]: > 6
Molecule: recombinant S-tagged Arabidopsis SS2 N-terminal region polypeptide (NT) (from UniProt Q9MAC8 56-240) (domain or fragment)

stoichiometry N [2]: 2
Molecule: recombinant S-tagged Arabidopsis SS2 N-terminal truncation TRU1 (from UniProt Q9MAC8 57-792) (domain or fragment)

B1: recombinant S-tagged mature Arabidopsis thaliana starch synthase 2 (wild type) (enzyme, UniProt Q9MAC8 55-792, looked up)
chain: KCVSRVEASGSDDDEPEDALQATIDKSKKVLAMQRNLLHQIAERRKLVSSIKESTPDLDDAKASSKQESASSVNANTDATKKEIMDGDANGSVSPSTYGKSSLSKEPEAKTFSPSTESLKNRKQSSASVISSSPVTSPQKPSDVATNGKPWSSVVASSVDPPYKPSSVMTSPEKTSDPVTSPGKPSKSRAGAFWSDPLPSYLTKAPQTSTMKTEKYVEKTPDVASSETNEPGKDEEKPPPLAGANVMNVILVAAECAPFSKTGGLGDVAGALPKSLARRGHRVMVVVPRYAEYAEAKDLGVRKRYKVAGQDMEVMYFHAFIDGVDFVFIDSPEFRHLSNNIYGGNRLDILKRMVLFCKAAVEVPWYVPCGGVCYGDGNLAFIANDWHTALLPVYLKAYYRDHGIMKYTRSVLVIHNIAHQGRGPVDDFSYVDLPSHYLDSFKLYDPVGGEHFNIFAAGLKAADRVLTVSHGYSWEVKTLEGGWGLHNIINENDWKFRGIVNGIDTQEWNPEFDTYLHSDDYTNYSLENLHIGKPQCKAALQKELGLPVRPDVPLIGFIGRLDHQKGVDLIAEAVPWMMSQDVQLVMLGTGRPDLEEVLRQMEHQYRDKARGWVGFSVKTAHRITAGADILLMPSRFEPCGLNQLYAMNYGTIPVVHAVGGLRDTVQQFDPYSETGLGWTFDSAEAGKLIHALGNCLLTYREYKESWEGLQRRGMTQDLSWDNAAEKYEEVLVAAKYHW
notes: Cloned into pET29a; Predicted 85 kDa; also called SS2; AtSS2; source: E. coli ArcticExpress; in bacterial lysate (GPC); not shown: S-tag, N-terminal, kept
stoichiometry N [3]: 2
